Target: T1, EphA4 (Eph receptor A4) (human, UniProt P54764 20-986)
T1 construct: Endogenous EphA4 on the human pancreatic cancer cell line MIAPaca-2 (over-expressing); also called EpbA4
Experiment: flow cytometry on EphA4 over-expressing MIAPaca-2 cells
Procedure: Cancer cells (5×10⁶) were incubated at 4° C. for 30 minutes with the purified polyclonal antibody (pAb), monoclonal antibodies (mAb), rabbit IgG (the control for pAb) or mouse IgG (the control for mAb). Cells were washed with phosphate buffer solution (PBS) and then incubated at 4° C. for 30 minutes in FITC-labeled Alexa Fluor 488. The cells were again washed in PBS, and analyzed on a flow cytometer (FACSCalibur®, Becton Dickinson) and then analyzed by BD CellQuest™ Pro software (Becton Dickinson). Mean fluorescence intensity (MFI) was defined as a ratio of the flow cytometric intensity (intensity by each protein specific antibody/intensity by rabbit IgG).
Using EphA4 over-expressing cells, the binding ratios of anti-EphA4 antibodies on the cell surface were investigated.

T1 sequence (P54764 20-986): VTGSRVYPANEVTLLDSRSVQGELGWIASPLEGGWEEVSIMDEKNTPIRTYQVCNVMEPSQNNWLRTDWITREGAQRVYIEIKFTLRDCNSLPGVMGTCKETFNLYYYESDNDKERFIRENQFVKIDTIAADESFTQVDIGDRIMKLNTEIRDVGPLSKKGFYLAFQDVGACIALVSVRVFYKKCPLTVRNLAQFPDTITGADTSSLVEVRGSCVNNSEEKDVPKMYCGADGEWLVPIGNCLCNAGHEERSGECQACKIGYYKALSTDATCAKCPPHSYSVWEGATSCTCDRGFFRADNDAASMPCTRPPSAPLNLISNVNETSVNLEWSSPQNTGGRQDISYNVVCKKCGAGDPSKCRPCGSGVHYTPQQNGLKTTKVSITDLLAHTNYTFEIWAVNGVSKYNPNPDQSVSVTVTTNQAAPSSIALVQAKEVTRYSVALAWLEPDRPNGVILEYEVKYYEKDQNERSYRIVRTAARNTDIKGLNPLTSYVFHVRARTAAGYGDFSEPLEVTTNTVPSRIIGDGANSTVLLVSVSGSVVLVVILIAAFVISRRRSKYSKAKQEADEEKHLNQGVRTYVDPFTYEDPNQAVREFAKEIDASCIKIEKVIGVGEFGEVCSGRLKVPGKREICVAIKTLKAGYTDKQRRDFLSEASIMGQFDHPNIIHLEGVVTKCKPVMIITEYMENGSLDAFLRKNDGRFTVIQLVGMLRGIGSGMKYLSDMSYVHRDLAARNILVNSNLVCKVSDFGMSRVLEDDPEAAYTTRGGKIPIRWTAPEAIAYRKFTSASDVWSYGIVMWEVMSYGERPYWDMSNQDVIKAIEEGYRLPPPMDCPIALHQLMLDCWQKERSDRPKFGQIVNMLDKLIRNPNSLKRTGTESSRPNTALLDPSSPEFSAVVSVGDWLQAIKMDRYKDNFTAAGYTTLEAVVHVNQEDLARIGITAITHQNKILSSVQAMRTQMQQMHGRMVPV

| MFI | Binder |
| --- | --- |
| 12.6 ratio (intensity by specific antibody / intensity by control IgG) | anti-EphA4 human antibody 65 (antibody, V domains shown, also called clone 65) VH: QVQLVQSGAEVKKPGASVKVSCKVSGYTLTELSMHWVRQAPGKGLEWMGGFDPEDGETIYAQKFQGRVTMTEDTSTDTAYMELSSLRSEDTAVYYCATAQPFHWGDDAFDIWGQGTMVTVSS VL: not shown |
| 15.5 ratio (intensity by specific antibody / intensity by control IgG) | anti-EphA4 human antibody 336 (antibody, V domains shown) VH: QVQLQQSGPGLVKPSQTLSLTCAISGDSVSSNSAAWNWIRQSPSRGLEWLGRTYYRSKWYNDYAVSVKSRITINPDTSKNQFSLQLNSVTPEDTAVYYCARDSLRSFDYWGQGTLVTVSS VL: QSVLTQPPSVSAAPGQKVTISCSGSSSNIGNNYVSWYQQLPGTAPKLLIYDNNKRPSGIPDRFSGSKSGTSATLGITGLQTGDEADYYCGTWDSSLSAVVFGGGTKLTVLG |

Reference: patent US20090191211A1 (ONCOTHERAPY SCIENCE, published 2009)
